Assay results as given in the supplement of paper PMC7877785.
± gives the uncertainty stated by the source.

Assay: self-splicing fitness, log relative to wild type (ln ratio); higher = more splicing; Tetrahymena group I intron in knt gene, E. coli kanamycin selection, DiMSum; sequences stand for … in CUCUCU…GGAGGGAAAAGUUAUCAGGCAUGCACCUGGUAGCUAGUCUUUAAACCAAUAGAUUGCAUCGGUUUAAAAGGCAAGACCGUCAAAUUGCGGGAAAGGGGUCAACAGCCGUUCAGUACCAAGUCUCAGGGGAAACUUUGAGAUGGCCUUGCAAAGGGUAUGGUAAUAAGCUGACGGACAUGGUCCUAACCACGCAGCCAAGUCCUAAGUCAACAGAUCUUCUGUUGAUAUGGAUGCAGUUCACAGACUAAAUGUCGGUCGGGGAAGAUGUAUUCUUCUCAUAAGAUAUAGUCGGACCUCUCCUUAAUGGGAGCUAGCGGAUGAAGUGAUGCAACACUGGAGCCGCUGGGAACUAAUUUGUAUGCGAAAGUAUAUUGAUUAGUUUUGGAGUACUCGUGGUCG
Summary of the method: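 Pooled colonies went to amplicon sequencing on an Illumina HiSeq 2500 after six replicate transformations. The plates were LB agar with 100 μg/mL carbenicillin, 50 μM IPTG and 0.2% rhamnose, with or without 25 μg/mL kanamycin, incubated overnight at 37°C or 30°C. The E. coli BL21(DE3) library had all eight P1ex-region intron nucleotides randomised, the intron placed in the knt kanamycin-resistance gene on pET-22b(+). DiMSum fitness is the error-weighted combination of replicate fold changes, kanamycin against none, normalised to wild type.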

With CCGCAGCAAUAUUACGCGGC the “self-splicing fitness (ln)” value (30 °C) was -4.42 ± 0.42 and the “self-splicing fitness (ln)” value (37 °C) was -2.55 ± 0.29.

In the case of CCGCAGCAAUAUUACGGAAU, the “self-splicing fitness (ln)” value (30 °C) is reported as -4.02 ± 0.25 and the “self-splicing fitness (ln)” value (37 °C) is reported as -2.89 ± 0.34.

In the case of CCGCAGCAAUAUUACGGGCA, the “self-splicing fitness (ln)” value (30 °C) is reported as -2.72 ± 0.17 and the “self-splicing fitness (ln)” value (37 °C) is reported as -2.43 ± 0.18.

In the case of CCGCAGCAAUAUUACGGGGC, the “self-splicing fitness (ln)” value (30 °C) is reported as -3.25 ± 0.24 and the “self-splicing fitness (ln)” value (37 °C) is reported as -2.21 ± 0.28.

With CCGCAGCAAUAUUACGGGGU the “self-splicing fitness (ln)” value (30 °C) was -3.54 ± 0.14 and the “self-splicing fitness (ln)” value (37 °C) was -2.21 ± 0.13.

In the case of CCGCAGCAAUAUUACGUCUG, the “self-splicing fitness (ln)” value (30 °C) is reported as -3.34 ± 0.17 and the “self-splicing fitness (ln)” value (37 °C) is reported as -3.13 ± 0.18.

For CCGCAGCAAUAUUACGUGGU, the “self-splicing fitness (ln)” value (30 °C) was -3.29 ± 0.13 and the “self-splicing fitness (ln)” value (37 °C) was -2.25 ± 0.13.

In the case of CCGCAGCAAUAUUACGUUUC, the “self-splicing fitness (ln)” value (30 °C) is reported as -3.08 ± 0.31 and the “self-splicing fitness (ln)” value (37 °C) is reported as -2.93 ± 0.29.

For CCGGAGCAAUAUUACGAAGU, the “self-splicing fitness (ln)” value (30 °C) was -4.05 ± 0.26 and the “self-splicing fitness (ln)” value (37 °C) was -1.53 ± 0.23.

With CCGGAGCAAUAUUACGAGCA the “self-splicing fitness (ln)” value (37 °C) was -0.395 ± 0.25.

With CCGGAGCAAUAUUACGCAAC the “self-splicing fitness (ln)” value (30 °C) was -1.66 ± 0.4 and the “self-splicing fitness (ln)” value (37 °C) was -2.92 ± 0.47.

With CCGGAGCAAUAUUACGCAGC the “self-splicing fitness (ln)” value (37 °C) was -2.52 ± 0.37.

With CCGGAGCAAUAUUACGCCCA the “self-splicing fitness (ln)” value (30 °C) was -3.21 ± 0.32 and the “self-splicing fitness (ln)” value (37 °C) was -2.06 ± 0.43.

For CCGGAGCAAUAUUACGCGUU, the “self-splicing fitness (ln)” value (30 °C) was -2.5 ± 0.28 and the “self-splicing fitness (ln)” value (37 °C) was -2.28 ± 0.24.

With CCGGAGCAAUAUUACGCUUU the “self-splicing fitness (ln)” value (30 °C) was -4.14 ± 0.3 and the “self-splicing fitness (ln)” value (37 °C) was -2.47 ± 0.17.

For CCGGAGCAAUAUUACGGCCU, the “self-splicing fitness (ln)” value (30 °C) was -4.41 ± 0.28 and the “self-splicing fitness (ln)” value (37 °C) was -3.79 ± 0.23.

In the case of CCGGAGCAAUAUUACGGGAG, the “self-splicing fitness (ln)” value (30 °C) is reported as -3.98 ± 0.27 and the “self-splicing fitness (ln)” value (37 °C) is reported as -2.13 ± 0.26.

For CCGGAGCAAUAUUACGGGGA, the “self-splicing fitness (ln)” value (30 °C) was -2.97 ± 0.2 and the “self-splicing fitness (ln)” value (37 °C) was -2.73 ± 0.3.

For CCGGAGCAAUAUUACGGUCA, the “self-splicing fitness (ln)” value (30 °C) was -4.22 ± 0.47.

In the case of CCGGAGCAAUAUUACGGUGU, the “self-splicing fitness (ln)” value (30 °C) is reported as -3.21 ± 0.16 and the “self-splicing fitness (ln)” value (37 °C) is reported as -2.13 ± 0.19.

In the case of CCGGAGCAAUAUUACGGUUU, the “self-splicing fitness (ln)” value (30 °C) is reported as -3.33 ± 0.25 and the “self-splicing fitness (ln)” value (37 °C) is reported as -2.55 ± 0.18.

With CCGGAGCAAUAUUACGUAAU the “self-splicing fitness (ln)” value (30 °C) was -3.95 ± 0.15 and the “self-splicing fitness (ln)” value (37 °C) was -3.36 ± 0.23.

With CCGGAGCAAUAUUACGUACG the “self-splicing fitness (ln)” value (30 °C) was -0.407 ± 0.14 and the “self-splicing fitness (ln)” value (37 °C) was -0.609 ± 0.18.

With CCGGAGCAAUAUUACGUCAG the “self-splicing fitness (ln)” value (30 °C) was -1.42 ± 0.12 and the “self-splicing fitness (ln)” value (37 °C) was -1.17 ± 0.15.

In the case of CCGGAGCAAUAUUACGUGUC, the “self-splicing fitness (ln)” value (30 °C) is reported as -3.36 ± 0.14 and the “self-splicing fitness (ln)” value (37 °C) is reported as -2.82 ± 0.14.

With CCGGAGCAAUAUUACGUUAA the “self-splicing fitness (ln)” value (30 °C) was -2.42 ± 0.26 and the “self-splicing fitness (ln)” value (37 °C) was -1.93 ± 0.41.

For CCGGAGCAAUAUUACGUUAG, the “self-splicing fitness (ln)” value (30 °C) was -1.47 ± 0.078 and the “self-splicing fitness (ln)” value (37 °C) was -0.769 ± 0.11.

In the case of CCGGAGCAAUAUUACGUUCU, the “self-splicing fitness (ln)” value (30 °C) is reported as -1.23 ± 0.14.

For CCGGAGCAAUAUUACGUUUU, the “self-splicing fitness (ln)” value (30 °C) was -3.67 ± 0.3 and the “self-splicing fitness (ln)” value (37 °C) was -2.6 ± 0.38.

For CCGUAGCAAUAUUACGACCG, the “self-splicing fitness (ln)” value (30 °C) was -0.302 ± 0.12 and the “self-splicing fitness (ln)” value (37 °C) was 0.31 ± 0.2.

With CCGUAGCAAUAUUACGAGCA the “self-splicing fitness (ln)” value (37 °C) was -1.37 ± 0.33.

With CCGUAGCAAUAUUACGAGGU the “self-splicing fitness (ln)” value (30 °C) was -3.33 ± 0.19 and the “self-splicing fitness (ln)” value (37 °C) was -2.46 ± 0.22.

With CCGUAGCAAUAUUACGAGUU the “self-splicing fitness (ln)” value (30 °C) was -3.11 ± 0.15 and the “self-splicing fitness (ln)” value (37 °C) was -3.07 ± 0.18.

With CCGUAGCAAUAUUACGAUAG the “self-splicing fitness (ln)” value (30 °C) was -1.22 ± 0.29 and the “self-splicing fitness (ln)” value (37 °C) was -0.918 ± 0.18.

With CCGUAGCAAUAUUACGCCGA the “self-splicing fitness (ln)” value (30 °C) was -2.64 ± 0.22 and the “self-splicing fitness (ln)” value (37 °C) was -1.99 ± 0.19.

In the case of CCGUAGCAAUAUUACGCCGC, the “self-splicing fitness (ln)” value (30 °C) is reported as -3.84 ± 0.26 and the “self-splicing fitness (ln)” value (37 °C) is reported as -2.68 ± 0.34.

In the case of CCGUAGCAAUAUUACGCGUC, the “self-splicing fitness (ln)” value (30 °C) is reported as -3.42 ± 0.15 and the “self-splicing fitness (ln)” value (37 °C) is reported as -1.78 ± 0.15.

For CCGUAGCAAUAUUACGGGGU, the “self-splicing fitness (ln)” value (30 °C) was -3.96 ± 0.24 and the “self-splicing fitness (ln)” value (37 °C) was -1.71 ± 0.2.

With CCGUAGCAAUAUUACGGUAC the “self-splicing fitness (ln)” value (30 °C) was -3.37 ± 0.3.

With CCGUAGCAAUAUUACGUAAA the “self-splicing fitness (ln)” value (30 °C) was -3.22 ± 0.13 and the “self-splicing fitness (ln)” value (37 °C) was -2.38 ± 0.23.

For CCGUAGCAAUAUUACGUCUU, the “self-splicing fitness (ln)” value (30 °C) was -4.01 ± 0.34 and the “self-splicing fitness (ln)” value (37 °C) was -2.96 ± 0.23.

For CCGUAGCAAUAUUACGUGUG, the “self-splicing fitness (ln)” value (30 °C) was -2.36 ± 0.095 and the “self-splicing fitness (ln)” value (37 °C) was -1.06 ± 0.082.

For CCGUAGCAAUAUUACGUGUU, the “self-splicing fitness (ln)” value (30 °C) was -3.35 ± 0.2 and the “self-splicing fitness (ln)” value (37 °C) was -2.47 ± 0.18.

In the case of CCGUAGCAAUAUUACGUUUG, the “self-splicing fitness (ln)” value (30 °C) is reported as -1 ± 0.081 and the “self-splicing fitness (ln)” value (37 °C) is reported as -0.134 ± 0.096.
